According to publication PMC5095173, “Disulfide-activated protein kinase G Iα regulates cardiac diastolic relaxation and fine-tunes the Frank–Starling response” (Nature Communications, 2016):

What was measured:
[1] = test system: PKGIα (analogue-sensitive C42S/M438G), cGMP-activated; test: Chemical genetic phosphoproteomic screen, cGMP-activated PKGIα C42S/M438G versus unactivated control; format: biochemical, human PKGIα; substrates in rat heart homogenate; conditions: control = PKGIα C42S/M438G
How it was run: (§1)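 Substrates in rat left-ventricle homogenate (20 mg ml) are labelled by engineered Met438Gly PKGIα given a bulky N6-alkylated ATPγS analogue, either as disulfide-activated M438G (oxidized, DTT-free) or as cGMP-activated C42S/M438G. Covalent capture and LC–MS/MS identify sites relative to unactivated kinase.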

[2] = test system: PKGIα (analogue-sensitive M438G), disulfide-activated; test: Chemical genetic phosphoproteomic screen, disulfide-activated PKGIα M438G versus unactivated control; format: biochemical, human PKGIα; substrates in rat heart homogenate; conditions: control = PKGIα C42S/M438G
How it was run: as §1

Row | Molecule | log2 fold change cGMP vs Control [1] | log2 fold change Disulfide vs Control [2]
1 | Crip2 pS114 (protein, UniProt P36201 1-208, looked up, phosphorylated at S114) Cysteine-rich protein 2: MASKCPKCDKTVYFAEKVSSLGKDWHKFCLKCERCNKTLTPGGHAEHDGKPFCHKPCYATLFGPKGVNIGGAGSYIYEKPPTEAPQVTGPIEVPVVRTEERKTSGPPKGPSKASSVTTFTGEPNMCPRCNKRVYFAEKVTSLGKDWHRPCLRCERCSKTLTPGGHAEHDGQPYCHKPCYGILFGPKGVNTGAVGSYIYDKDPEGTVQP | 3.456 | 1.062
2 | Crip2 pS19 (protein, UniProt P36201 1-208, looked up, phosphorylated at S19) Cysteine-rich protein 2: MASKCPKCDKTVYFAEKVSSLGKDWHKFCLKCERCNKTLTPGGHAEHDGKPFCHKPCYATLFGPKGVNIGGAGSYIYEKPPTEAPQVTGPIEVPVVRTEERKTSGPPKGPSKASSVTTFTGEPNMCPRCNKRVYFAEKVTSLGKDWHRPCLRCERCSKTLTPGGHAEHDGQPYCHKPCYGILFGPKGVNTGAVGSYIYDKDPEGTVQP | 2.804 | 1.661
3 | Gpsm1 pS567 (protein, UniProt Q9R080 1-673, looked up, phosphorylated at S567) G-protein-signaling modulator …: MASPAPPAAEELPGPAARRLYSRMEASCLELALEGERLCKAGDFKAGVAFFEAAVQVGTEDLKTLSAIYSQLGNAYFYLKEYARALQFHKHDLLLARTIGDRMGEAKASGNLGNTLKVLGRFDEAIVCCQRHLDIAQEQGDKVGEARALYNIGNVYHAKGKQLSWNAAQDPGHLPPDVRETLHRASEFYERNLSLVKELGDRAAQGRAYGNLGNTHYLLGNFTEATTFHKERLAIAKEFGDKAAERRAYSNLGNAHIFLGRFDVAAEHYKKTLQLSRQIRDQAVEAQACYSLGNTYTLLQDYERAAEYHLRHLVIAQELADRVGEGRACWSLGNAYVSMGSPAQALTFAKKHLQISQEIGDRNGELTARMNIAHLQLALGRLTSPAAAEKPDLAGYEAQGARPKRTQRLSAETWDLLRLPLDREQNGETHHTGDWRGPSRDSLPLPMRSRKYQEGPDAIERRPREGSHSPLDSADVRVQVPRTGIPRAPSSDEECFFDLLSKFQSSRMDDQRCPLEEGQAGAAEATAAPTLEERAAQPSVTASPQTEEFFDLIASSQSRRLDDQRASVGSLPGLRITLNNVGHLRGDGDPQEPGDEFFNMLIKYQSSRIDDQRCPPPDVLPRGPTMPDEDFFSLIQRVQAKRMDEQRVDLAGSPDQEASGLPDPRQQCPPGAS | 2.926 | 1.042
4 | Rrad pS25 (protein, UniProt P55043 1-306, looked up, phosphorylated at S25) GTP-binding protein RAD: MTLNGGSGAGGSRSAGRERDRRRGSTPWGPAPPLHRRSMPVDERDLQAALTPGSLAATAAGTRTQGQRLDWPEGSSDSLSSGDSGSEDGVYKVHAAGAPGVGKSALARIFGGVEDGPEAEAAGHTYDRSITVDGEEASLMVYDIWEQDGGCWLPGHCMAMGDAYVIVYSITDKGSFEKASELRVQLRARRQTDVPIILVGNKSDLVRSREVSVDEGRACAEVFDCKFIETSAALHHNVQALFEGVVRQIRLRRDSKEDNARRQAGTRRRESLGKKAKLFLGRIVARNSRKMAFLAKSKSCHDLSVL | -0.2363 | -0.2493
5 | Hspb6 pS16 (protein, UniProt P97541 1-162, looked up, phosphorylated at S16) Heat shock protein beta-6: MEIRVPVQPSWLRRASAPLPGFSTPGRLFDQRFGEGLLEAELASLCPAAIAPYYLRAPSVALPTAQVPTDPGYFSVLLDVKHFSPEEISVKVVGDHVEVHARHEERPDEHGFIAREFHRRYRLPPGVDPAAVTSALSPEGVLSIQATPASAQASLPSPPAAK | 2.607 | 1.245
6 | Dync1li1 pT408 (protein, UniProt Q9QXU8 1-523, looked up, phosphorylated at T408) Cytoplasmic dynein 1 light …: MAAVGRVGSFGSSPPGLASTYASGPLANELASGSGGPAAGDDEDGQNLWSRILREVSTRSRSKLPTGKNVLLLGEDGAGKTSLIRRIQGIEEYKKGRGLEYLYLNVHDEDRDDQTRCNVWILDGDLYHKGLLKFSLDALSLRDTLVMLVVDMSKPWTALDSLQKWASVVREHVDKLKIPPEEMKEMEQKLIRDFQEYVEPGEDFPASPQRRATAAQEDRDDSVVLPLGADTLTHNLGLPVLVVCTKCDAISVLEKEHDYRDEHFDFIQSHIRKFCLQYGAALIYTSVKENKNIDLVYKYIVQKLYGFPYKIPAVVVEKDAVFIPAGWDNDKKIGILHENFQTLKIEDNFEDIITKPPVRKFVHEKEIMAEDDQVFLMKLQSLLAKQPPTAAGRPVDASPRVPGGSPRTPNRSVSSNVASVSPIPAGSKKIDPNMKAGATSEGVLANFFNSLLSKKTGSPGGPGVGGSPGGGAAGASTSLPPSAKKSGQKPVLSDVHAELDRITRKPASVSPTTPPSPTEGEAS | 3.758 | 1.949
7 | Dync1li1 pS412 (protein, UniProt Q8R1Q8 1-523, looked up, phosphorylated S412) Cytoplasmic dynein 1 light …: MAAVGRVGSFGSSPPGLASTYASGPLANELASGSGGPAAGDDEDGQNLWSCILSEVSTRSRSKLPTGKNVLLLGEDGAGKTSLIRRIQGIEEYKKGRGLEYLYLNVHDEDRDDQTRCNVWILDGDLYHKGLLKFSLDALSLRDTLVMLVVDMSKPWTALDSLQKWASVVREHVDKLKIPPEEMKEMEQKLIRDFQEYVEPGEDFPASPQRRTTGAQEDRGDSVVLPLGADTLTHNLGLPVLVVCTKCDAISVLEKEHDYRDEHFDFIQSHIRKFCLQYGAALIYTSVKENKNIDLVYKYIVQKLYGFPYKIPAVVVEKDAVFIPAGWDNDKKIGILHENFQTLKVEDNFEDIITKPPVRKFVHEKEIMAEDDQVFLMKLQSLLAKQPPTAAGRPVDASPRVPGGSPRTPNRSVSSNVASVSPIPAGSKKIDPNMKAGATSEGVLANFFNSLLSKKTGSPGGPGVGGSPGGGAAGASPSLPPSAKKSGQKPVLSDVHAELDRITRKPASVSPTTPTSPTEGEAS | 4.149 | 1.658
8 | Jph2 pS240 (protein, UniProt Q2PS20 1-692, looked up, phosphorylated at S240) Junctophilin-2: MSGGRFDFDDGGAYCGGWEGGKAHGHGLCTGPKGQGEYSGSWNFGFEVAGVYTWPSGNTFEGYWSQGKRHGLGIETKGRWLYKGEWTHGFKGRYGIRQSTNSGAKYEGTWNNGLQDGYGTETYADGGTYQGQFTNGMRHGYGVRQSVPYGMAVVVRSPLRTSLSSLRSEHSNGTVAPDSPAADGPTLPLPPVPRGGFALSLLATAEAARPPGLFTRGALLGRLRRSESRTSLGSQRSRLSFLKSELSSGASDAASTGSLAEGAEGPDDAAAPFDADIDATTTETYMGEWKNDKRSGFGVSERSSGLRYEGEWLDNLRHGYGRTTLPDGHREEGKYRHNVLVKGTKRRVLPLKSNKVRQKVEHGVEGAQRAAAIARQKAEIAASRTSHAKAKAEAAEQAALAANQESNIARTLAKELAPDFYQPGPEYQKRRLLQEILENSESLLEPRERGPGTGLPERPRESPQLHERETPQPEGGPPSPAGTPPQPKRPRPGSSKDGLLSPGAWNGEPGGEGSRPATPSDGAGRRSPARPASEHMAIEALQPPPAPSREPEVALYRGYHSYAVRTGPPEPPPLEDEPEPEPEVPRSDSEPPSPVSATVQEEESPAPRSRVPAKPATLEPKPIVPKAEPKAKARKTEARGLSKAGAKKKGRKEVAQEAEAEVEVEEVPNTVLICMVILLNIGLAILFVHLLT | 0.1615 | 0.2694
9 | Hmga1 pS36 (protein, UniProt P17095 2-107, looked up, phosphorylated S36) High mobility group protein …: SESGSKSSQPLASKQEKDGTEKRGRGRPRKQPPVSPGTALVGSQKEPSEVPTPKRPRGRPKGSKNKGAAKTRKVTTAPGRKPRGRPKKLEKEEEEGISQESSEEEQ | 4.39 | 1.6764
10 | Hspb1 pS9 (protein, UniProt P14602 1-209, looked up, phosphorylated S9) Heat shock protein beta-1: MTERRVPFSLLRSPSWEPFRDWYPAHSRLFDQAFGVPRLPDEWSQWFSAAGWPGYVRPLPAATAEGPAAVTLAAPAFSRALNRQLSSGVSEIRQTADRWRVSLDVNHFAPEELTVKTKEGVVEITGKHEERQDEHGYISRCFTRKYTLPPGVDPTLVSSSLSPEGTLTVEAPLPKAVTQSAEITIPVTFEARAQIGGPEAGKSEQSGAK | 1.482 | -0.3759
11 | Eml1 pS108 (protein, UniProt Q4V8C3 1-814, looked up, phosphorylated at S108) Echinoderm …: MEDGFSSYSSLYDTSSLLQFCNDDSASAASSMEISDRIASLEQRVQMQEDDIQLLKSALADVVRRLNITEEQQAVLNRKGPTKARPLGQTLPLRTTVNNGTVLPKKPSASLPSPSGSRKEMVVPVTKSINRTSSSERVSPGGRRESSGDSKGSRNRTGSTSSSSSGKKNSESKPKEPTFSPEEGYVKMFLRGRPVTMYMPKDQVDSYSLEAKAELPTKRLKLEWVYGYRGRDCRNNLYLLPTGETVYFIASVVVLYNVEEQLQRHYAGHNDDVKCLAVHPDRITIATGQVAGTSKDGKQLPPHVRIWDSVTLNTLHVIGIGFFDRAVTCIAFSKSNGGSHLCAVDDSNDHVLSVWDWQREERLADVKCSNEAVFAADFHPTDTNIIVTCGKSHLYFWTLEGNSLNKKQGLFEKQEKPKFVLCVTFSENGDTITGDSSGNILVWGKGTNRISYAVQGAHEGGIFALCMLRDGTLVSGGGKDRRLISWNGNYQKLHKAEIPEQFGPIRTVAEGKGNVILIGTTRNFVLQGTLTGDFTPITQGHTDELWGLAIHASKPQFLTCGHDKHATLWDAVGHRPVWDKIIEDPAQSSGFHPSGSVVAVGTLTGRWFVFDTETKDLVTVHTDGNEQLSVMRYSPDGNFLAIGSHDNCIYIYGVSDNGRKYTRVGKCSGHSSFITHLDWSVNSQFLVSNSGDYEILYWVPSACKQVVSVETTRDIEWATYTCTLGFHVFGVWPEGSDGTDINAVCRAHEKKLLSTGDDFGKVHLFSYPCSQFRAPSHIYSGHSSHVTNVDFLCEDSHLISTGGKDTSIMQWRVI | 3.948 | 1.496
12 | Fhl2 pS255 (protein, UniProt O70433 1-279, looked up, phosphorylated S255) Four and a half LIM domains …: MTERFDCHHCNESLYGKKYILKEENPHCVACFEELYANTCEECGTPIGCDCKDLSYKDRHWHEGCFHCSRCGSSLVDKPFAAKEEQLLCTDCYSNEYSSKCQECKKTIMPGTRKMEYKGSSWHETCFTCQRCQQPIGTKSFIPKENQNFCVPCYEKQYALQCVQCKKPITTGGVTYREQPWHKECFVCTACKKQLSGQRFTARDEFPYCLTCFCDLYAKKCAGCTNPISGLGGTKYISFEERQWHNDCFNCKKCSLSLVGRGFLTERDDILCPDCGKDI | 3.732 | 1.662
